Columns and labels:
shed CEA (soluble CEA) = biological target: T1, shed CEA (soluble CEA) (human, UniProt P06731 35-685, limits assumed); experiment: cell-based or functional assay
T1 sequence (looked up): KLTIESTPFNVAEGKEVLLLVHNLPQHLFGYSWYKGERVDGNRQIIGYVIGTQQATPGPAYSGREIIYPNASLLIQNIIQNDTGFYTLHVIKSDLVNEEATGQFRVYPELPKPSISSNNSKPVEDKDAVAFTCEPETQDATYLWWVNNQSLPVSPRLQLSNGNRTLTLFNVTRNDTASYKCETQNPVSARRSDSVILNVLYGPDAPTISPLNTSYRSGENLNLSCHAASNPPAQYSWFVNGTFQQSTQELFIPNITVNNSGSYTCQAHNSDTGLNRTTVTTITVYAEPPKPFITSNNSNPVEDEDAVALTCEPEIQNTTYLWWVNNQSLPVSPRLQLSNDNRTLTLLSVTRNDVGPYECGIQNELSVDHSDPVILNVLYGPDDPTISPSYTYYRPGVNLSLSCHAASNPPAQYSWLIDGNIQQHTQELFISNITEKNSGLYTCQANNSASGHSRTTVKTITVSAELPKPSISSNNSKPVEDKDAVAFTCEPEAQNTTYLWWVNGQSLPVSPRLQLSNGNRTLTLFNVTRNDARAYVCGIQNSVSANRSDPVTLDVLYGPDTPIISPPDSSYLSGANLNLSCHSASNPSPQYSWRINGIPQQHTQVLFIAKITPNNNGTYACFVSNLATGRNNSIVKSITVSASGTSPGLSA

[1] = biological target: T2, human CEACAM5 on MKN-45 cells (human, UniProt P06731 35-685); experiment: binding to MKN-45 cells (MFI), without shed CEA
T2 construct: Endogenous CEACAM5 on MKN-45 gastric adenocarcinoma cells, which also carry CD47 (and CEACAM6); also called CD66e; MKN45 CEA+ cancer cells
T2 sequence: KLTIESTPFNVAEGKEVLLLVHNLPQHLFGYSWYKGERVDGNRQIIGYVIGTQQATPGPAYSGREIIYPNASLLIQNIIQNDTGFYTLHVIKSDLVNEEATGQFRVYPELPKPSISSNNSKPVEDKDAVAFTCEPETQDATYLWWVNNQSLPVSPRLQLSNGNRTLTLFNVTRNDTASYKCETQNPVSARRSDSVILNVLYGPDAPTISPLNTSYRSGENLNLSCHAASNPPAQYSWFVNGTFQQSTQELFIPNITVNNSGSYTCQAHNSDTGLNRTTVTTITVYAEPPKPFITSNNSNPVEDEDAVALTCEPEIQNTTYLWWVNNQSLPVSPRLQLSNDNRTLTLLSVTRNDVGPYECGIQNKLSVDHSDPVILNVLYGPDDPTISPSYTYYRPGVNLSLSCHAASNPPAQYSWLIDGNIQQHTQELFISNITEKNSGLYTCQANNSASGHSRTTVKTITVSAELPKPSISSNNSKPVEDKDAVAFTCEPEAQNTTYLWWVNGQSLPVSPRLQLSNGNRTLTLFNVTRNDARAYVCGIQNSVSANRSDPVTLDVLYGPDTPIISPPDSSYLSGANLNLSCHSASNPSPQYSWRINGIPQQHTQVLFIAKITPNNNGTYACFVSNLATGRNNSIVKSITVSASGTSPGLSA

[2] = biological target: T3, human CD47 on MKN45 cells (human, UniProt Q08722 19-323); experiment: inhibition of SIRPα-mouseFc binding to CD47 on MKN45 cells, imaging (CX5)
T3 construct: whole, on cells; also called IAP
Description: The detection of bound SIRPα cell-based assay monitoring the interaction of soluble SIRPα with human CD47 expressed at the surface of MKN45 is used for the detection of the blocking activity. Dose-response experiments with bispecific antibodies according to the invention allow determination of an IC50 value.
MKN45 cancer cells, expressing both CD47 and CEACAM5, are stained with CFSE violet to allow the imaging system (CX5) to detect the cells. Briefly, 3,000 stained MKN45 cells per well are seeded in a 384 optical well plate (Costar) and incubated for 50 minutes with increased concentrations of bispecific antibodies of the invention (1.9 pM to 333 nM, in quadruplicates). Then, a fixe concentration of SIRPα-mouseFc premixed with anti-mouse IgG-Fc AF647 coupled antibody (Jackson Immunoresearch diluted 1:2000) is added at 50 ng/mL final. After an incubation of 3H30 plates are acquired with the imaging system (CX5, Thermofisher) and fluorescence signals emitted by the detected bound SIRPα is recorded by the software dedicated to the imaging system. Fluorescence signals are plotted according to the dose range tested and IC50 are calculated by the software (Prism, Graphpad).

[3] = biological target: T2, human CEACAM5 on MKN-45 cells; experiment: flow cytometry on MKN45 CEA+ cells (carry CEACAM5 and CD47); MKN45 CEA+ cancer cells
[4] = biological target: T2, human CEACAM5 on MKN-45 cells; experiment: binding to MKN-45 cells (MFI), in the presence of 200 ng/mL shed CEA
[5] = biological target: T2, human CEACAM5 on MKN-45 cells; experiment: FACS binding to MKN-45 cells, which express CD47, CEACAM5 and CEACAM6; K2AC39 is cross-reactive to CEACAM6
[6] = biological target: T2, human CEACAM5 on MKN-45 cells; experiment: flow cytometry on MKN45 CEA+ cells (carry CEACAM5 and CD47)
human CEACAM6 = biological target: T4, human CEACAM6 (human, UniProt P40199 35-320); experiment: ELISA on biotinylated recombinant human CEACAM6 captured on streptavidin, bivalent mAb
T4 construct: also called CD66c; biotinylated recombinant human CEACAM6
T4 sequence (looked up): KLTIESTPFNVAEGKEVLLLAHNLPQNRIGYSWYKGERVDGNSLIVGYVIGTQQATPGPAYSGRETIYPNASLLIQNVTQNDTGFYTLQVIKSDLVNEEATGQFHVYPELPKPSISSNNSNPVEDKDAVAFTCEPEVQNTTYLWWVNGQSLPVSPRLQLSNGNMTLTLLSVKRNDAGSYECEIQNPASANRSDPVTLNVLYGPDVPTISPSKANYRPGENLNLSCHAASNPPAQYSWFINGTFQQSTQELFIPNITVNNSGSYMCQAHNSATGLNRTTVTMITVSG
Experimental: Biotinylated recombinant human CEACAM5 or CEACAM6 proteins are captured at 0.5 μg/mL in a streptavidin coated 96-well microplate. The plate is washed and monoclonal anti-CEA bivalent antibodies of the present invention are added as a broad concentration-range (e.g. from […] to 1 μg/mL) and incubated during 1 hr. The plate is washed and bound antibodies are detected with an anti-human IgG(Fc)-HRP (Jackson ImmunoResearch). […] The fluorescence signal is measured on a Synergy HT plate reader (Biotek).

Row | Binder | IC50 [2] | EC50 [6] | other results
1 | K2AC5 CEA×CD47 bispecific antibody (bispecific antibody, human IgG1, kappa, lambda, κλ body, human IgG1, common heavy chain; CEACAM5 arm light chain 1D9 (AC5) with lambda constant domain, CD47 arm kappa light chain KA3 (K2); also called CD47×CEA bispecific antibody K2AC5) heavy: not shown light 1: QSVLTQPPSVSAAPGQKVTISCSGSSSNIGYGLVSWYQQLPGTAPKLLIYAGNLRPSGIPDRFSGSKSGTSATLGITGLQTGDEADYYCGTWDFNYGVVFGGGTKLTVLGQPKAAPSVTLFPPSSEELQANKATLVCLISDFYPGAVTVAWKADSSPVKAGVETTTPSKQSNNKYAASSYLSLTPEQWKSHRSYSCQVTHEGSTVEKTVAPTECS light 2: not shown | 0.4 nM |  | shift of EC50 of the phagocytosis index curve of MKN-45 cells by 200 ng/mL shed CEA (shed CEA (soluble CEA)): < 4 fold; EC50 (read off the curve) [1]: ~0.3 µg/mL; EC50 [3]: 11.3 nM; EC50 (read off the curve) [4]: ~0.3 µg/mL
2 | K2AC39 CD47×CEA bispecific antibody (bispecific antibody, human IgG1, kappa, lambda, κλ body with common heavy chain; CEACAM5/CEACAM6 arm light chain 1B2 (AC39)) heavy: not shown light 1: QSVLTQPPSVSAAPGQKVTISCSGSSSEITASGVSWYQQLPGTAPKLLIYDNNKRPSGIPDRFSGSKSGTSATLGITGLQTGDEADYYCGTWDFPPSRFVFGGGTKLTVLGQPKAAPSVTLFPPSSEELQANKATLVCLISDFYPGAVTVAWKADSSPVKAGVETTTPSKQSNNKYAASSYLSLTPEQWKSHRSYSCQVTHEGSTVEKTVAPTECS light 2: not shown |  |  | EC50 (read off the curve) [5]: ~3 µg/mL
3 | K2AC28 CEA×CD47 bispecific antibody (bispecific antibody, human IgG1, kappa, lambda, κλ body, human IgG1, common heavy chain; CEACAM5 arm light chain C11 (AC28)) heavy: not shown light 1: NFMLTQPHSVSESPGKTVTISCTRSSGSINDITVHWYQQRPGSSPTTVIYGYNARPSGVPDRFSGSIDSSSNSASLTISGLKTEDEADYYCQSWDGHGSAYVFGGGTKLTVLGQPKAAPSVTLFPPSSEELQANKATLVCLISDFYPGAVTVAWKADSSPVKAGVETTTPSKQSNNKYAASSYLSLTPEQWKSHRSYSCQVTHEGSTVEKTVAPTECS light 2: not shown | 0.95 nM | 52.5 nM | 
4 | K2AC26 CEA×CD47 bispecific antibody (bispecific antibody, human IgG1, kappa, lambda, κλ body, human IgG1, common heavy chain; CEACAM5 arm light chain 2F7 (AC26)) heavy: not shown light 1: QSALTQPASVSGSPGQSITISCTGTSSDVKYANAVSWYQQHPGKAPKLMIYSNSIRPSGVSNRFSGSKSGNTASLTISGLQAEDEADYYCSSYDPRGNLLIRVFGGGTKLTVLGQPKAAPSVTLFPPSSEELQANKATLVCLISDFYPGAVTVAWKADSSPVKAGVETTTPSKQSNNKYAASSYLSLTPEQWKSHRSYSCQVTHEGSTVEKTVAPTECS light 2: not shown | 0.32 nM | 12.7 nM | 
5 | K2AC29 CEA×CD47 bispecific antibody (bispecific antibody, human IgG1, kappa, lambda, κλ body, human IgG1, common heavy chain; CEACAM5 arm light chain 2B5 (AC29)) heavy: not shown light 1: QSALTQPASVSGSPGQSITISCTGTSSDVEFTNGVSWYQQHPGKAPKLMIYGFSSRPSGVSNRFSGSKSGNTASLTISGLQAEDEADYYCSSYDPPWHLLARVFGGGTKLTVLGQPKAAPSVTLFPPSSEELQANKATLVCLISDFYPGAVTVAWKADSSPVKAGVETTTPSKQSNNKYAASSYLSLTPEQWKSHRSYSCQVTHEGSTVEKTVAPTECS light 2: not shown | 0.72 nM | 14.5 nM | 
6 | K2AC10 CEA×CD47 bispecific antibody (bispecific antibody, human IgG1, kappa, lambda, κλ body, human IgG1, common heavy chain; CEACAM5 arm light chain 1D5 (AC10)) heavy: not shown light 1: QSVLTQPPSVSGAPGQRVTISCTGSSSNIYANSNVHWYQQLPGTAPKLLIYSGSNRPSGVPDRFSGSKSGTSASLAITGLQAEDEADYYCQSYDPAHNLLTAVFGGGTKLTVLGQPKAAPSVTLFPPSSEELQANKATLVCLISDFYPGAVTVAWKADSSPVKAGVETTTPSKQSNNKYAASSYLSLTPEQWKSHRSYSCQVTHEGSTVEKTVAPTECS light 2: not shown | 0.22 nM | 1.15 nM | 
7 | K2AC13 CEA×CD47 bispecific antibody (bispecific antibody, human IgG1, kappa, lambda, κλ body, human IgG1, common heavy chain; CEACAM5 arm light chain 2B8 (AC13)) heavy: not shown light 1: QSALTQPASVSGSPGQSITISCTGTSSNVRYAAGVSWYQQHPGKAPKLMIYEVSNRPSGVSNRFSGSKSGNTASLTISGLQAEDEADYYCSSWDFEHGPAAKVFGGGTKLTVLGQPKAAPSVTLFPPSSEELQANKATLVCLISDFYPGAVTVAWKADSSPVKAGVETTTPSKQSNNKYAASSYLSLTPEQWKSHRSYSCQVTHEGSTVEKTVAPTECS light 2: not shown | 4 nM | 190 nM | 
8 | K2AC18 CEA×CD47 bispecific antibody (bispecific antibody, human IgG1, kappa, lambda, κλ body, human IgG1, common heavy chain; CEACAM5 arm light chain 1A2 (AC18)) heavy: not shown light 1: SYVLTQPPSVSVAPGKTARITCGGNGIGDASVHWYQQKPGQAPVLVIYSTTTRPSGIPERFSGSNSGNTATLTISRVEAGDEADYYCQVWDGFGPRHRAVFGGGTKLTVLGQPKAAPSVTLFPPSSEELQANKATLVCLISDFYPGAVTVAWKADSSPVKAGVETTTPSKQSNNKYAASSYLSLTPEQWKSHRSYSCQVTHEGSTVEKTVAPTECS light 2: not shown | 7 nM | 132 nM | 
9 | K2AC25 CEA×CD47 bispecific antibody (bispecific antibody, human IgG1, kappa, lambda, κλ body, human IgG1, common heavy chain; CEACAM5 arm light chain 2F4 (AC25)) heavy: not shown light 1: QSVLTQPPSVSAAPGQKVTISCSGSSSNIGITPVSWYQQLPGTAPKLLIYSNNFRPSGIPDRFSGSKSGTSATLGITGLQTGDEADYYCGTWDRTGHEIRPVFGGGTKLTVLGQPKAAPSVTLFPPSSEELQANKATLVCLISDFYPGAVTVAWKADSSPVKAGVETTTPSKQSNNKYAASSYLSLTPEQWKSHRSYSCQVTHEGSTVEKTVAPTECS light 2: not shown | 0.22 nM | 13 nM | 
10 | K2AC27 CEA×CD47 bispecific antibody (bispecific antibody, human IgG1, kappa, lambda, κλ body, human IgG1, common heavy chain; CEACAM5 arm light chain 2C11 (AC27)) heavy: not shown light 1: QSVLTQPPSVSGAPGQRVTISCTGSSSNIGYADKVHWYQQLPGTAPKLLIYNNSDRPSGVPDRFSGSKSGTSASLAITGLQAEDEADYYCQSYDGYNMLTAVFGGGTKLTVLGQPKAAPSVTLFPPSSEELQANKATLVCLISDFYPGAVTVAWKADSSPVKAGVETTTPSKQSNNKYAASSYLSLTPEQWKSHRSYSCQVTHEGSTVEKTVAPTECS light 2: not shown | 0.86 nM | 12.5 nM | 
11 | AC22 anti-CEA bivalent monoclonal antibody (antibody, human IgG1, lambda, V domains shown, also called 1G6; anti-CEA bivalent mAb of K2AC22) VH: not shown VL: QSVLTQPPSVSAAPGQKVTISCSGSSSNIANGIVSWYQQLPGTAPKLLIYFDNLRPSGIPDRFSGSKSGTSATLGITGLQTGDEADYYCGTWDFSYGIVFGGGTKLTVLG |  |  | binding result (human CEACAM6): no binding

Source: patent US20200123252A1 (LAMKAP BIO BETA, published 2020)
